The target of assay [1] is bovine carbonic anhydrase II (bovine) (UniProt P00921). Description: dot blot, biotinylated peptide on spotted bCAII.
Assay [2] has the same target. Description: dot blot, peptide with biotin at C-terminus on spotted bCAII.
Assay [3] concerns the target T1, bovine carbonic anhydrase II (bCAII) (Bos taurus, UniProt P00921). In words: Dot blot assay of biotin-conjugated peptide ligands on deposited bCAII. Type of assay: binding. Conditions: for dot blot affinity/potency towards bCAII, in words: serial reduction of deposited bCAII, peptide 0.5 μM, compared with precursor. The procedure:
Dot blot assays to measure affinity of the re-synthesized peptide ligands conjugated to biotin. […] A solution of bCAII was prepared as 10 mg/mL stocks in PBS buffer (pH 7.4). A serial dilution of the mother solution was applied to a nitrocellulose membrane, typically ranging from 2 μg to 5 ng per spot. The membrane was blocked at room temperature for 2 h in 5% nonfat milk/TBS-T. The membrane was then washed with TBS-T. […] After washing three times with TBS-T for 10 min, 1:3000 streptavidin-HRP (Abcam) prepared in 0.5% milk/TBS-T was added to the membrane and incubated for 2 h. After washing three times with TBS-T for 10 min, the membrane was treated with chemiluminescent reagents (Amersham ECL plus Western blotting detection reagents, GE Healthcare) and then immediately developed on film.

The target of assay [4] is T1, bovine carbonic anhydrase II (bCAII). In words: Surface Plasmon Resonance (SPR) of peptide ligands on immobilized bCAII. The settings on record: for response in SPR sensogram, in words: compared with other peptide ligands; for maximum response (Rmax): highest concentration (1.0 μM), bCAII immobilized to RU of 1000, FIG. 14; for interaction with bCAII: acetylated peptides, FIG. 9; for association-dissociation pattern in SPR sensogram: in words. It counts as binding. The text has this:
Validation by SPR. The peptide ligands were investigated for their binding affinity towards bCAII using SPR as a validation tool. The target marker was immobilized onto CM5 sensor chip to a response unit (RU) of 1000 in a Biacore T100 system. Each peptide solution of a series of concentrations was eluted through the surface of the chip to observe the response as well as the dissociation pattern mediated by treatment of glycine-hydrochloride. As depicted in FIG. 14, the maximum responses (Rmax) by the peptide ligands increased in a stepwise fashion from the hexamer-2 to the decamers and then to the tetradecamer (8→40→140) at the highest concentration (1.0 μM).
Surface Plasmon Resonance (SPR) experiments to measure affinity of the re-synthesized peptide ligands. Affinity measurements were performed using a Biacore T100 system and research grade CM5 sensor chips (GE Heathcare). The instrument was primed with HBS-EP+ (GE Heathcare) buffer. Flow cell 1 (or 3) was used as a reference to subtract nonspecific binding, drift, and the bulk refractive index, while flow cell 2 (or 4) was immobilized with the target biomarker (bCAII) following standard procedures. A 1:1 mixture of 0.4 M EDC and 0.1 M NHS was used to activate flow cell 2 (or 4), and 0.1 mg/mL bCAII solution was injected. Blocking of the remaining activated groups was done with a 1 M solution of ethanolamine (pH 8.5). bCAII was immobilized onto the sensor chip surface by […] (RU). The instrument was then primed using running buffer (HBS-EP+). Each of the 6mer ligand candidates identified were dissolved in HBS-EP+buffer to produce 5 μM peptide stock solutions for each peptide, which were serially diluted by a factor of 2 to produce a concentration series down to 2 nM. For a given affinity measurement, these series of peptide solutions successively were injected into flow cell 2 (or 4) for […] of contact time, 5 min of dissociation time, and […] of stabilization time using a flow rate of 100 μL/min at 25° C. Flow cell 2 (or 4) was regenerated by glycine 2.5 (GE Healthcare) after injection of each peptide solution.

Assay [5] deals with human carbonic anhydrase II (hCAII) (Homo sapiens, UniProt P00918). In words: Dot blot experiments of peptide ligands towards hCAII. Type of assay: binding. Conditions: FIG. 9.

Experimental findings from US20120122711A1, “SCREENING OF BIOPOLYMERS” (priority 2009, published 2012) are described below.

Non-standard residues stand in square brackets, D forms with d. Primed or numbered codes have the meaning given here. No end group written: not given here. PEG2′ = PEG2 tether (Merck, 20 atoms)

T1 sequence (P00921 whole entry): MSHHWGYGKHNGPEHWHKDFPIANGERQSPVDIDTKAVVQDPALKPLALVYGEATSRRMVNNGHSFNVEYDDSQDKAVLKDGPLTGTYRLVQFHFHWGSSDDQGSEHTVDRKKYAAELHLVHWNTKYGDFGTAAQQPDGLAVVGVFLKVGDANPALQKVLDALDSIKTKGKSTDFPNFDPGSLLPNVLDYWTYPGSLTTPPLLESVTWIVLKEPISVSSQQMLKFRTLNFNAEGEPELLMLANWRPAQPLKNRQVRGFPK
bovine carbonic anhydrase II (bovine), sequence (P00921 2-260 limits assumed): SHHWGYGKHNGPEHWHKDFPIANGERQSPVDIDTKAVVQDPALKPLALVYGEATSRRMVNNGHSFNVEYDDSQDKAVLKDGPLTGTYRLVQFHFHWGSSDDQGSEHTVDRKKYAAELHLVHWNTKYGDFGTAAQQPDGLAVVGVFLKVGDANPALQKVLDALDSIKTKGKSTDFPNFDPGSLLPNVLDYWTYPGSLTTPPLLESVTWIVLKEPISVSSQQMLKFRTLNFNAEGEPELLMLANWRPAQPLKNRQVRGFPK

decamer-3 (ryrr-ifvykr) (peptide) showed a lowest amount of deposited bCAII giving a developed spot in assay [1] of 20 ng.
In turn, decamer-4 (ifvykr-wryp) (peptide) yielded a lowest amount of deposited bCAII giving a developed spot in assay [2] of 20 ng.
For “ifvykr ([dI][dF][dV][dY][dK][dR]) [hexamer-2]”, the “dot blot affinity/potency towards bCAII, in words” value in assay [3] is “even better property than hexamer-1”. Moreover, in assay [4], the “response in SPR sensogram, in words” value is “even better property than hexamer-1” and the “maximum response (Rmax)” value came out at 8 RU.
For “ifvykr-wryp ([dI][dF][dV][dY][dK][dR][dW][dR][dY][dP]) [decamer-4, 11]”, in assay [3], the “dot blot affinity/potency towards bCAII, in words” value is listed as “most prominent”.
Take “kvtflhrywf (Ac-[dK][dV][dT][dF][dL][dH][dR][dY][dW][dF]-NH2) [decamer-N1, 8, D-amino acids, acetylated]”: in assay [3], the “dot blot affinity/potency towards bCAII, in words” value was “more potent”. Besides, the “dot blot potency towards hCAII compared with bCAII” value in assay [5] is listed as “similarly potent”. In addition, in assay [4], the “interaction with bCAII” value was “interacting with bCAII”; the “response in SPR sensogram, in words” value is “higher response unit (RU)”; the “association-dissociation pattern in SPR sensogram” value is listed as “much more antibody-like behavior”.
With lhrywf [hexamer-1], the “dot blot potency towards hCAII compared with bCAII” value in assay [5] is reported as “more potent”. Moreover, the “interaction with bCAII” value in assay [4] was “interacting with bCAII”. In addition, the “affinity (KD) in a Surface Plasmon Resonance (SPR) study” value in assay [4] (first-generation anchor peptide against bCAII) is recorded as “a few”.
For the substance “ryrr-ifvykr ([dR][dY][dR][dR][dI][dF][dV][dY][dK][dR]) [decamer-3, 10]”, in assay [3], the “dot blot affinity/potency towards bCAII, in words” value is listed as “most prominent”.
Turning to “ryrr-ifvykr-wryp ([dR][dY][dR][dR][dI][dF][dV][dY][dK][dR][dW][dR][dY][dP]-{PEG2′-biotin}) [tetradecamer-N2C, 12]”, in assay [3] (peptide ligand 0.1 μM), the “dot blot affinity compared with the two precursors decamer-N2 and decamer-C2” value is “not dramatically improved”; the “dot blot potency compared with initial anchor hexamer-2” value is recorded as “far more potent”. In assay [4], the “maximum response (Rmax)” value is 140 RU and the “association-dissociation pattern in SPR sensogram” value is listed as “more antibody-like pattern”.
